Experimental data as given in the RNAGym collection of RNA variant scans (doi:10.1073/pnas.2313332121).

B1: TPR t1 (parent)
chain: GACCAAUCUGCCCUCAGAGCUCGAGAACAUCUUCGGAUGCAGAGGAGGCAGGCUUCGGUGGCGCGAUAGCGCCAACGUCCUCAACCUCCAAUGCAUCCCACCACAUGAUGAUGCCUGAAGAGCCUUGGUUUUUUG

Variants of: B1
Experiment: polymerase ribozyme fitness, log enrichment relative to wild type (log ratio); higher = more active; in vitro selection for triplet polymerase activity
Outline: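 One round of in vitro selection, in triplicate, was applied to PCR-built, transcribed mutant libraries of each subunit of a heterodimeric triplet polymerase ribozyme. The steps were annealing with a biotinylated primer, partner subunit and triplets, incubation frozen at −7 °C, gel excision of extended constructs, streptavidin-bead capture and RT-PCR. Fitness is the logarithm, base 2, of genotype enrichment over wild-type enrichment from inverse-variance-weighted replicate averages of Illumina-sequenced inputs and outputs, keeping genotypes with ≥10 input reads and ≥1 read per output.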

Row | Variant | polymerase ribozyme fitness (log ratio)
1 | C56U G60A A68C C70U | -6.82
2 | C53G A90C | -2.02
3 | C85G G113U | -4.31
4 | C8G G42A G63A | -2.89
5 | C8U C79A | -0.138
6 | C20A G35U A100U C114A C115U U130C | -6.44
7 | C15G G42A G69U C88G | -2.25
8 | A29U G45U A74G | -3.27
9 | G60A C79U C80A A121G | -3.77
10 | C34G C72A | -6.05
11 | G39A G45C G51C G69U U125G | -2.57
12 | C28G A37U G42U C56A U106A G113A C114G | -5.89
13 | G48U C101A U116G U130A | -4.7
14 | G44U C53G G60A A121C | 0.687
15 | U7G C76U | 0.285
16 | A2U C8G G36U G45A C102U G120A G127C | -4.41
17 | C70G C88G | -5.57
18 | C40U A46G C64U A84C | -1.65
19 | G113U C114G | -2.89
20 | C80A G93U G120C | -4.31
21 | A26C C53A U112G | -5.53

Row | Variant | polymerase ribozyme fitness (log ratio)
22 | C11G C101A | -0.692
23 | U9C | 0.614
24 | A29U A41G C53G | -2.64
25 | A18U C70G | -6.16
26 | A26U U38G A43U C73G C76U A111G | -7.42
27 | C88A U106A G128U | -3.15
28 | U7C A27G G69C | -2.37
29 | G10U G48U G93A | -1.17
30 | C53U G135U | -1.02
31 | A43U C56U | -1.59
32 | A43G G60A | -2.12
33 | U87A G93C | -1.3
34 | G51U C101A | -4.55
35 | G25C G47A A103U C115G | -7.4
36 | G60A C97G | -4.02
37 | C72A C89U U92G | -1.39
38 | G60A C88G G120C | -0.823
39 | C11G C12G C56A A118G | -0.95
40 | A2U C12A G19A U30G C56A U112A C114G | -7.24
41 | U81A G93C | -2.88
42 | C73G A121G | 1.16

Row | Variant | polymerase ribozyme fitness (log ratio)
43 | G10U G17A C56G C62U C79U | -4.53
44 | G77C A95C G113A | -2.42
45 | G36A G52A A66G C79G | -2.84
46 | U30C C72U U87A U112A | -2.41
47 | G57A G63U U78C A95C C115A | -2.54
48 | C34A C89U U112A U133A | -1.77
49 | C13U U112G | 1.14
50 | C12A G135U | -1.23
51 | A46U G63A C86U | -2.45
52 | U9G G69U | 0.642
53 | G61A C115A | 0.519
54 | G45A G113A C115U | -3.5
55 | C3U G36C G58C U112G | -0.836
56 | G63U U116C U129A | -3.33
57 | G51U U54A C89U U129C | -2.82
58 | U59G G71U G120C U130A | -4.75
59 | C8A C56A | 0.505
60 | G51A C56U | -0.934
61 | C15A G63U A68G A111G | -7.51
62 | C4U G36C G63A G69U G120A G127A | -0.365
63 | A105C G110A | -5.26

Row | Variant | polymerase ribozyme fitness (log ratio)
64 | G48U C49G U96A | -1.45
65 | C40U G93A U96G | -0.786
66 | C15G C20U | -2.98
67 | G10U A105C | -2.95
68 | U32C G47A | -1.18
69 | C20U G93A | -1.32
70 | G23C G93A | -6.59
71 | U9G U54A G69C U129C | -2.97
72 | C80A G127U | -3.48
73 | C114A A119G | 0.218
74 | C11G C12G G48A G120C | 0.765
75 | C11A G113C G135U | -4.88
76 | A83U A91U U92G A111C U130C | -3.89
77 | G48U C62A U78G | -1.98
78 | C70U U126G | -3.3
79 | A103G | -3.07
80 | C40U C56A C82G C97U C115U U132C | -4.39
81 | G10U A84G G120A U125G | 0.926
82 | G93A C97U G127C | -2.77
83 | C62G C88U | -1.37
84 | G57U U87A C89G C104U | -4.28
